IntAct's records for PubMed 16461910

What was measured:
[1] = molecular target: dnaa_bacsu dnaA (UniProt P05648)
[2] = molecular target: acub_bacsu acuB (UniProt P39066)
[3] = molecular target: tlpa_bacsu tlpA (UniProt P39216)
[4] = molecular target: dpo3b_bacsu dnaN (UniProt P05649)
Sequence of dpo3b_bacsu dnaN (P05649 whole entry): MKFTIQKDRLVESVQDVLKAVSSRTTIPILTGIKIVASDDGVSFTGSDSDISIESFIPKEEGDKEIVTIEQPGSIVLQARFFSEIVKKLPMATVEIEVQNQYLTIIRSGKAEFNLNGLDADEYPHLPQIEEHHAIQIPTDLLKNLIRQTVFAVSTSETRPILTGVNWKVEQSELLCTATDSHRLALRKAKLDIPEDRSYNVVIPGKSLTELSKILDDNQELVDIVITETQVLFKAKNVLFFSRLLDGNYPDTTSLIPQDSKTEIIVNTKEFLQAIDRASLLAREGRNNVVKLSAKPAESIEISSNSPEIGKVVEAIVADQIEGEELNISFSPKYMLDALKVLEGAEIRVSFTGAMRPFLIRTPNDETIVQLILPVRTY

Sequence of dnaa_bacsu dnaA (P05648 whole entry): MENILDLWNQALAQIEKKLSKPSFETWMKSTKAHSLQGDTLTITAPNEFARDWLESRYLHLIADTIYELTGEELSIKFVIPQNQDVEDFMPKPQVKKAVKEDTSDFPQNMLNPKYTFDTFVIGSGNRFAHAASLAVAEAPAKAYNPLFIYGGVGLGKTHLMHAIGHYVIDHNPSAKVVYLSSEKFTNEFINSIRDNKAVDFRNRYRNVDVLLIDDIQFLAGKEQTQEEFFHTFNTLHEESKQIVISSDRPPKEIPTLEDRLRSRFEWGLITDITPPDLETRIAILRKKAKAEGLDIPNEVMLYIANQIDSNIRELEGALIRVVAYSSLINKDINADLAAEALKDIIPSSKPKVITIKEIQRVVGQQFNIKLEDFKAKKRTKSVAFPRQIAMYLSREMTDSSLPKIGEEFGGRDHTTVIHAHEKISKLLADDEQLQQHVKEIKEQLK
Sequence of tlpa_bacsu tlpA (P39216 whole entry): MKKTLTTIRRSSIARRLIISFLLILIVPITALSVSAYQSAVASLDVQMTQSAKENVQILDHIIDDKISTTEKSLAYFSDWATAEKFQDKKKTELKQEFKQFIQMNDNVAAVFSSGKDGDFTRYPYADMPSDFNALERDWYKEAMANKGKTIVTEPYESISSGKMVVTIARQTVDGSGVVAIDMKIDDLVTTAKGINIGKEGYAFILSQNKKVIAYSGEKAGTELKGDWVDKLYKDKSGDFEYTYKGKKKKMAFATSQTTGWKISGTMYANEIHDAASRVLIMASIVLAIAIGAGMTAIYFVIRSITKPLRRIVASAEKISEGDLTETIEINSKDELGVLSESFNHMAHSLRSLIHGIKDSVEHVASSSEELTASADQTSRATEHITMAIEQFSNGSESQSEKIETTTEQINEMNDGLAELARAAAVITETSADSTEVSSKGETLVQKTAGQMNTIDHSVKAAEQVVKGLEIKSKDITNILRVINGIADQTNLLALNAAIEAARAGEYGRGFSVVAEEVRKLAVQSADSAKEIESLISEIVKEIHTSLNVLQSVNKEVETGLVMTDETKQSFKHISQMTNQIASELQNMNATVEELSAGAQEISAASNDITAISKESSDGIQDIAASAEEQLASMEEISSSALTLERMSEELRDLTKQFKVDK
Sequence of acub_bacsu acuB (P39066 whole entry): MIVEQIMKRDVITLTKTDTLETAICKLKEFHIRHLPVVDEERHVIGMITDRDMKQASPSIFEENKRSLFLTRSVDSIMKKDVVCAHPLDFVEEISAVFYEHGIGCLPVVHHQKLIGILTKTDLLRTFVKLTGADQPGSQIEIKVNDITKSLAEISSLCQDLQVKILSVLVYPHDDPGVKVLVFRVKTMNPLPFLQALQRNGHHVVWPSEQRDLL

Substance	effect of a mutation on the interaction [1]	effect of a mutation on the interaction [2]	effect of a mutation on the interaction [3]	effect of a mutation on the interaction [4]
Replication initiation control protein YabA (Bacillus subtilis), P37542 L27A	disrupting interaction strength	disrupting interaction strength	disrupting interaction strength	disrupting interaction strength
Replication initiation control protein YabA (Bacillus subtilis), P37542 L86P	disrupting interaction strength			
Replication initiation control protein YabA (Bacillus subtilis), P37542 L110P				disrupting interaction strength
Replication initiation control protein YabA (Bacillus subtilis), P37542 N85D	disrupting interaction strength			
Replication initiation control protein YabA (Bacillus subtilis), P37542 V99A				disrupting interaction strength
